Laboratory results published in patent US20250034266A1 (ZAI LAB SHANGHAI, published 2025).
Like-named read-outs stand apart in the source and are kept apart here.

Assays:
human CCR8 [1] = target: T1, human CCR8 (human, UniProt P51685 1-355); test: FACS, competition with AF647-human CCL1 on CHO-K1-human CCR8 cells
T1 construct: whole, on cells; also called hCCR8
Protocol: Blocking curves were generated to rank the blocking activities of PTM sites removed antibodies. Briefly, a total of 5×10⁴ CHO-K1-human CCR8 cells for each well were seeded in 96-well plate. Cells were incubated by series diluted purified hybridoma antibodies and 4 nM AF647 labeled human CCL1 (Almac, #CAF-07) for 1 hour at 4° C. Antibodies were prepared with 3-fold serial dilution ranging from 100 nM to 0.0051 nM in FACS buffer. Then, cells were washed by FACS buffer for three times after incubation. […] FlowJo software was used for analysis. Data was plotted as the logarithm of antibody concentration versus mean fluorescence signals. IC₅₀ values were determined in GraphPad Prism 8 (GraphPad Software) using a log(agonist) vs. response-Variable slope (4 parameters) curve fit.

cynomolgus CCR8 [2] = target: T2, cynomolgus CCR8 (cynomolgus, UniProt G7NYJ2 1-355); test: FACS on HEK293-cynomolgus CCR8 cells
T2 construct: whole, on cells
T2 sequence (G7NYJ2 entry or part of it): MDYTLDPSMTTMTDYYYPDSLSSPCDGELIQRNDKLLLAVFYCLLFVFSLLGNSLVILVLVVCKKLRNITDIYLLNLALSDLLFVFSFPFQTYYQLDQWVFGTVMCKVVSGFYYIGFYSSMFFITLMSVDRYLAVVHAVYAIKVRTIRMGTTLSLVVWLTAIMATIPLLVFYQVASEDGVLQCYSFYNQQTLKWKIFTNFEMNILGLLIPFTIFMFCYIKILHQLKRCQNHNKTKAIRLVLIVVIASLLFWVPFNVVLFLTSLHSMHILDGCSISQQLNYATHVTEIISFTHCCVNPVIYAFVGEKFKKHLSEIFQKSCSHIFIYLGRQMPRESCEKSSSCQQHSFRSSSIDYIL
Protocol: (§1) Binding affinities of NG site removed antibodies were determined on human CCR8 and cynomolgus CCR8 overexpression cells. Briefly, CFSE labeled HEK293-human CCR8 cells or CFSE labeled HEK293-cynomolgus CCR8 cells were mixed with HEK293 cells. The mixed ratio was 1:1. A total of 5×10⁴ mixed cells for each well were seeded in 96-well plates and washed by FACS buffer (DPBS containing 1% FBS) once. Cells were incubated by serial diluted purified hybridoma antibodies for 1 hour at 4° C. Antibodies were prepared with 3-fold serial dilution ranging from 100 nM to 0.0017 nM or from 25.3165 nM to 0.0004 nM in FACS buffer. […] After primary antibody incubation, cells were washed by FACS buffer for three times. Then, cells were stained with secondary antibody (Alexa Flu647-conj gated rabbit anti-mouse IgG, Jackson ImmunoResearch, #315606046) at 1:600 dilution in FACS buffer, incubated for 0.5 hour at 4° C. […] FlowJo software was used for analysis. Data was plotted as the logarithm of antibody concentration versus mean fluorescence signals. EC₅₀ values were calculated in GraphPad Prism 8 (GraphPad Software) using a log (agonist) vs. response-Variable slope (4 parameters) curve fit.

human CCR8 [3] = target: T1, human CCR8; test: FACS on HEK293-human CCR8 cells
Protocol: as §1

human CCR8 [4] = target: T1, human CCR8; test: FACS, competition with AF647-human CCL1 on CHO-K1-human CCR8 cells; remark: listed apart in the source
human CCR8 [5] = target: T1, human CCR8; test: FACS on HEK293-human CCR8 cells; remark: listed apart in the source
Protocol: (§2) A total of 5×10⁴ cells for each well were seeded in 96-well plates and washed with FACS buffer (DPBD containing 1.5% FBS) for once. Antibodies were prepared with 3-fold serial dilution ranging from 100 nM to 0.0017 nM in FACS buffer. Cells were incubated with 50 μL of diluted antibodies at 4° C. for 1 hour. […] After primary antibody incubation, cells were washed for 3 times by FACS buffer. Then, cells were stained by Alexa Flu647 labeled anti-human IgG secondary antibody (Jackson ImmunoResearch, #109606170) or Alexa Flu647 labeled anti-mouse IgG secondary antibody (Jackson ImmunoResearch, #115605072) at 1:600 dilution in FACS buffer for 0.5 hour at 4° C. After washed for 3 times, Flow cytometry was performed to measure the binding.

cynomolgus CCR8 [6] = target: T2, cynomolgus CCR8; test: FACS on HEK293-cynomolgus CCR8 cells; remark: listed apart in the source
Protocol: as §2

human CCR8 [7] = target: T1, human CCR8; test: FACS on CHO-K1-human CCR8 cells
cynomolgus CCR8 [8] = target: T2, cynomolgus CCR8; test: FACS on HEK293-cynomolgus CCR8 cells; remark: listed apart in the source
human CCR8 [9] = target: T1, human CCR8; test: FACS, competition with CCL1 on CHO-K1-human CCR8 cells
human CCR8 [10] = target: T1, human CCR8; test: FACS on HuT78 cells (endogenous human CCR8)
Protocol: HuT78 cells expressing endogenous human CCR8 were used for determining binding affinities of selected affinity matured anti-CCR8 antibodies. Briefly, a total of […] cells for each well were seeded in 96-well plates and washed with FACS buffer (DPBS containing […]) for once. […] Cells were incubated with 50 μL of diluted antibodies at 4° C. for 1 hour. After primary antibody incubation, cells were washed for 3 times by FACS buffer. Then, cells were stained by Alexa Fbu647 labeled anti-human IgG secondary antibody (Jackson ImmunoResearch, #109606170) at 1:600 dilution in FACS buffer for 0.5 hour at 4° C. After 3 times washed, flow cytometry (Sartourius, iQue3) was performed to measure the binding affinities of antibodies. […]

T1 sequence (P51685 whole entry): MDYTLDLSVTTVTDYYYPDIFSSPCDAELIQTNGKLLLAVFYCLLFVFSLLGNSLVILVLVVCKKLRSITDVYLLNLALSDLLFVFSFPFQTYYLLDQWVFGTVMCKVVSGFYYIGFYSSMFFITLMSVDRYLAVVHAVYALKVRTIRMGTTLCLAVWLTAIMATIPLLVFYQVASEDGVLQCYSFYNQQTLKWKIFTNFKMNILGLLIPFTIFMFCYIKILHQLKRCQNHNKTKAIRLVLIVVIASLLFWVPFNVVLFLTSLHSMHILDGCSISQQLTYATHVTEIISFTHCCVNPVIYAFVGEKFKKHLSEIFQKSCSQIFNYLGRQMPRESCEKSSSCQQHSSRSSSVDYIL

Row | IC50 (human CCR8 [1]) [pM] | Max Inhibition (%) (human CCR8 [1]) | EC50 (cynomolgus CCR8 [2]) [pM] | Max MFI (cynomolgus CCR8 [2]) [MFI] | EC50 (human CCR8 [3]) [pM] | Max MFI (human CCR8 [3]) [MFI] | Binder | further results
1 | 725 | 77.5 | 173 | 4720 | 129 | 2040 | 149F2C10_G29A (antibody, V domains shown, NG site removed variant of 149F2C10) VH: EVQLVESGGGLVQPKGSLKLSCAASGFTFNTYAMNWVRQAPGKGLEWVARIRSKSNFYATYYADSVKDRFTISRDDSQDMLYLQMNILKTEDTAIYYCVRGRDYGSSYAMDYWGQGTSVTVSS VL: DIVMTQAAPSVPVTPGESVSISCRSSKSLLHSNANTYLYWFLQRPGQSPQLLIYRMSNLASGVPDRFSGSGSGTAFTLRISRVEAEDVGVYYCMQHLEYPLTFGAGTKLELK | –
2 | 934 | 80.1 | 131 | 3310 | 142 | 1740 | 149F2C10-CHO (antibody, V domains shown, The suffix -CHO is not explained) VH: EVQLVESGGGLVQPKGSLKLSCAASGFTFNTYAMNWVRQAPGKGLEWVARIRSKSNFYATYYADSVKDRFTISRDDSQDMLYLQMNILKTEDTAIYYCVRGRDYGSSYAMDYWGQGTSVTVSS VL: DIVMTQAAPSVPVTPGESVSISCRSSKSLLHSNGNTYLYWFLQRPGQSPQLLIYRMSNLASGVPDRFSGSGSGTAFTLRISRVEAEDVGVYYCMQHLEYPLTFGAGTKLELK | –
3 | 3070 | 55.7 | 209 | 2450 | 161 | 1640 | 149F2C10_N28Q (antibody, V domains shown, NG site removed variant of 149F2C10; detected with anti-mouse IgG) VH: EVQLVESGGGLVQPKGSLKLSCAASGFTFNTYAMNWVRQAPGKGLEWVARIRSKSNFYATYYADSVKDRFTISRDDSQDMLYLQMNILKTEDTAIYYCVRGRDYGSSYAMDYWGQGTSVTVSS VL: DIVMTQAAPSVPVTPGESVSISCRSSKSLLHSQGNTYLYWFLQRPGQSPQLLIYRMSNLASGVPDRFSGSGSGTAFTLRISRVEAEDVGVYYCMQHLEYPLTFGAGTKLELK | –
4 | 1040 | 72 | 211 | 4680 | 194 | 1900 | 149F2C10_G29V (antibody, V domains shown, NG site removed variant of 149F2C10) VH: EVQLVESGGGLVQPKGSLKLSCAASGFTFNTYAMNWVRQAPGKGLEWVARIRSKSNFYATYYADSVKDRFTISRDDSQDMLYLQMNILKTEDTAIYYCVRGRDYGSSYAMDYWGQGTSVTVSS VL: DIVMTQAAPSVPVTPGESVSISCRSSKSLLHSNVNTYLYWFLQRPGQSPQLLIYRMSNLASGVPDRFSGSGSGTAFTLRISRVEAEDVGVYYCMQHLEYPLTFGAGTKLELK | –
5 | 1090 | 70.7 | 190 | 4640 | 146 | 2060 | 149F2C10_G29I (antibody, V domains shown, NG site removed variant of 149F2C10) VH: EVQLVESGGGLVQPKGSLKLSCAASGFTFNTYAMNWVRQAPGKGLEWVARIRSKSNFYATYYADSVKDRFTISRDDSQDMLYLQMNILKTEDTAIYYCVRGRDYGSSYAMDYWGQGTSVTVSS VL: DIVMTQAAPSVPVTPGESVSISCRSSKSLLHSNINTYLYWFLQRPGQSPQLLIYRMSNLASGVPDRFSGSGSGTAFTLRISRVEAEDVGVYYCMQHLEYPLTFGAGTKLELK | –
6 | 15000 | 44.9 | 333 | 2020 | 210 | 1420 | 149F2C10_N28S (antibody, V domains shown, NG site removed variant of 149F2C10) VH: EVQLVESGGGLVQPKGSLKLSCAASGFTFNTYAMNWVRQAPGKGLEWVARIRSKSNFYATYYADSVKDRFTISRDDSQDMLYLQMNILKTEDTAIYYCVRGRDYGSSYAMDYWGQGTSVTVSS VL: DIVMTQAAPSVPVTPGESVSISCRSSKSLLHSSGNTYLYWFLQRPGQSPQLLIYRMSNLASGVPDRFSGSGSGTAFTLRISRVEAEDVGVYYCMQHLEYPLTFGAGTKLELK | –
7 | 2250 | 65.3 | 314 | 1890 | 244 | 1650 | 149F2C10_N28I (antibody, V domains shown, NG site removed variant of 149F2C10) VH: EVQLVESGGGLVQPKGSLKLSCAASGFTFNTYAMNWVRQAPGKGLEWVARIRSKSNFYATYYADSVKDRFTISRDDSQDMLYLQMNILKTEDTAIYYCVRGRDYGSSYAMDYWGQGTSVTVSS VL: DIVMTQAAPSVPVTPGESVSISCRSSKSLLHSIGNTYLYWFLQRPGQSPQLLIYRMSNLASGVPDRFSGSGSGTAFTLRISRVEAEDVGVYYCMQHLEYPLTFGAGTKLELK | –
8 | – | – | – | – | – | – | Hu149-1 (antibody, V domains shown, humanized IgG, detected with anti-human IgG) VH: EVQLVESGGGLVQPGGSLKLSCAASGFTFNTYAMNWVRQASGKGLEWVGRIRSKSNFYATYYAASVKGRFTISRDDSKNTAYLQMNSLKTEDTAVYYCVRGRDYGSSYAMDYWGQGTLVTVSS VL: DIVMTQSPLSLPVTPGEPASISCRSSKSLLHSNANTYLYWFLQKPGQSPQLLIYRMSNLASGVPDRFSGSGSGTDFTLKISRVEAEDVGVYYCMQHLEYPLTFGGGTKVELK | IC50 (human CCR8 [4]): 936 pM; Max Inhibition (%) (human CCR8 [4]): 99.2%; EC50 (human CCR8 [5]): 534 pM; Max MFI (human CCR8 [5]): 7610 MFI; EC50 (cynomolgus CCR8 [6]): 578 pM; Max MFI (cynomolgus CCR8 [6]): 20900 MFI
9 | – | – | – | – | – | – | Hu149-2 (antibody, V domains shown, humanized IgG) VH: EVQLVESGGGLVQPGGSLKLSCAASGFTFNTYAMHWVRQASGKGLEWVGRIRSKSNFYATYYAASVKGRFTISRDDSKNTAYLQMNSLKTEDTAVYYCVRGRDYGSSYAMDYWGQGTLVTVSS VL: DIVMTQSPLSLPVTPGEPASISCRSSKSLLHSNANTYLYWFLQKPGQSPQLLIYRMSNLASGVPDRFSGSGSGTDFTLKISRVEAEDVGVYYCMQHLEYPLTFGGGTKVELK | IC50 (human CCR8 [4]): 12500 pM; Max Inhibition (%) (human CCR8 [4]): 39.5%; EC50 (human CCR8 [5]): 3480 pM; Max MFI (human CCR8 [5]): 1120 MFI; EC50 (cynomolgus CCR8 [6]): 146000 pM; Max MFI (cynomolgus CCR8 [6]): 1550 MFI
10 | – | – | – | – | – | – | Hu149-23 (antibody, human IgG1, V domains shown, human IgG1) VH: EVQLVESGGGLVQPGGSLKLSCAASGFTFNTYAMNWVRQAPGKGLEWVGRIRSKSNFYATAYAASVKGRFTISRDDSKNTAYLQMNSLKTEDTAVYYCTRGREYGSSYAMDYWGQGTLVTVSS VL: DIVMTQSPLSLPVTPGEPASISCRSSKSLLHSNANTYLYWFLQKPGQSPQLLIYRMSNLASGVPDRFSGSGSGTDFTLKISRVEAEDVGVYYCMQHLKYPLTFGGGTKVELK | EC50 (human CCR8 [7]): 265 pM; Max MFI (human CCR8 [7]): 816000 MFI; EC50 (cynomolgus CCR8 [8]): 369 pM; Max MFI (cynomolgus CCR8 [8]): 4.32e+06 MFI; IC50 (human CCR8 [9]): 259 pM; Max Inhibition (%) (human CCR8 [9]): 103%; Max MFI (human CCR8 [10]): 161000 MFI
11 | – | – | – | – | – | – | Hu149-24 (antibody, human IgG1, V domains shown, human IgG1) VH: EVQLVESGGGLVQPGGSLKLSCAASGFTFNTYAMNWVRQAPGKGLEWVGRIRSKSNFYATAYAASVKGRFTISRDDSKNTAYLQMNSLKTEDTAVYYCTRGKEYGSSYAMDYWGQGTLVTVSS VL: DIVMTQSPLSLPVTPGEPASISCRSSKSLLHSNANTYLYWFLQKPGQSPQLLIYRMSNLASGVPDRFSGSGSGTDFTLKISRVEAEDVGVYYCMQHLKYPLTFGGGTKVELK | EC50 (human CCR8 [7]): 166 pM; Max MFI (human CCR8 [7]): 844000 MFI; EC50 (cynomolgus CCR8 [8]): 161 pM; Max MFI (cynomolgus CCR8 [8]): 3.9e+06 MFI; IC50 (human CCR8 [9]): 172 pM; Max Inhibition (%) (human CCR8 [9]): 106%; Max MFI (human CCR8 [10]): 198000 MFI
